Experimental data: the supplement of paper PMC10567573

B1: C6orf223 (parent)
chain: TLARMSRRTRGPVERAAAAAAAAA
B2: TRAF3IP2 (parent)
chain: FMEKRNQWLVSQLSAASPDTGHDS
B3: FAM50A (parent)
chain: KALEILRKDFSELRSAGVEQLMYI

Variants of: B1
Assay: protein stability index of a GFP-peptide fusion (GPS, HEK-293T) (PSI 1-6); higher = more stable
Settings: c terminus: a fixed tail appended
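Note: lentivirally expressed fusions sorted by FACS into six bins by GFP to DsRed ratio, PSI derived from sequencing read proportions per bin multiplied by bin number.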

Row | Variant | protein stability index
1 | L2E | 4.7
2 | A21V | 2.18
3 | A21M | 1.95
4 | A21W | 2.83
5 | P12W | 2.27
6 | A23C | 3.99
7 | A23W | 2.18
8 | A23T | 4.46
9 | A23L | 3.09
10 | A23Y | 3.26
11 | A23I | 3.49
12 | A17F | 1.63
13 | A17T | 3.76
14 | A17Y | 4.15
15 | A17R | 3.5
16 | A22T | 3.2
17 | A22K | 1.97
18 | A22F | 2.37
19 | A22C | 3.33
20 | A22L | 2.4
21 | A22I | 2.23

Row | Variant | protein stability index
22 | A22W | 2.68
23 | A22Y | 2.66
24 | A22N | 3.38
25 | A16S | 3.8
26 | R4I | 1.94
27 | A18M | 1.56
28 | A18T | 3.57
29 | A18Y | 2.13
30 | A18I | 3.43
31 | A18L | 2.92
32 | A18Q | 2.4
33 | A18W | 2.45
34 | A18P | 4.09
35 | A18S | 2.48
36 | A18N | 3.25
37 | A19K | 3.43
38 | A24F | 2.35
39 | A24H | 4.49
40 | A24P | 2.23
41 | R15W | 2.01

Variants of: B2
Assay: as above
Settings: c terminus: a fixed tail appended

Row | Variant | protein stability index
42 | S14N | 2.58
43 | L13M | 2.48
44 | A15S | 1.79
45 | S17W | 1.57
46 | S17M | 2.1
47 | K4D | 3
48 | Q12M | 1.68
49 | L9R | 2.08
50 | D19K | 2.28
51 | D19W | 1.52
52 | D23V | 2.71
53 | G21L | 1.78
54 | N6T | 1.83

Variants of: B3
Assay: as above
Settings: c terminus: a fixed tail appended

Row | Variant | protein stability index
55 | S11E | 2.51
56 | S11H | 2.97
57 | S11D | 1.6
58 | S11R | 2.76
59 | S11Y | 1.21
60 | S11I | 3.09
61 | E19N | 2
62 | E19L | 2.18
63 | E19Q | 2.95
64 | E19W | 1.95
65 | E19P | 4.03
66 | E19H | 3.15
67 | E19I | 2.66
68 | E19G | 1.76
69 | E19F | 2.9
70 | Q20K | 4.59
71 | Q20L | 2.75
72 | Q20M | 1.54
73 | Q20V | 3.63
74 | Q20P | 3.58
75 | Q20D | 3.81
76 | Q20Y | 2.58
77 | K1Y | 3.42

Row | Variant | protein stability index
78 | K1A | 3.07
79 | K1N | 1.86
80 | K1P | 2.04
81 | K1Q | 1.78
82 | K1E | 1.88
83 | K1V | 1.18
84 | K1M | 3.33
85 | K1D | 1.28
86 | K1T | 1.91
87 | L6P | 2.03
88 | L6E | 2.13
89 | L6T | 1.85
90 | L6S | 2.27
91 | L6F | 2.24
92 | L6N | 1.74
93 | L6Q | 2.51
94 | L6A | 1.41
95 | L6H | 1.55
96 | L6K | 1.09
97 | L6V | 2.36
98 | L6G | 1.57
99 | L6R | 1.89
100 | L6D | 2

Row | Variant | protein stability index
101 | I24Q | 1.73
102 | I24E | 1.01
103 | I24N | 1.21
104 | I24K | 1.94
105 | I24C | 1.98
106 | I24S | 1.54
107 | L21P | 3.17
108 | L21G | 3
109 | L21A | 1.78
110 | L21Y | 3.12
111 | L21N | 2.82
112 | L21D | 2.23
113 | L21R | 3.83
114 | E4D | 1.62
115 | E4I | 2.76
116 | E4K | 2.34
117 | E4P | 2.74
118 | E4V | 2.21
119 | E4F | 3.86
120 | L13H | 5.15
121 | L13I | 2
122 | L13K | 1.53
123 | L13A | 3.08

Row | Variant | protein stability index
124 | R7E | 1.54
125 | R7A | 1.25
126 | R7F | 3.25
127 | R7P | 2.28
128 | R7H | 2.58
129 | R7L | 3.87
130 | R7S | 2.59
131 | R7I | 2.18
132 | R7T | 2.91
133 | F10N | 2.32
134 | F10M | 2.52
135 | F10V | 3.72
136 | F10H | 3.24
137 | F10A | 1.74
138 | D9M | 2.56
139 | D9C | 2.89
140 | D9A | 2.4
141 | D9E | 3.81
142 | D9F | 2.6
143 | D9S | 3.85
144 | D9L | 1.57
145 | D9V | 2.25
146 | D9Q | 1.2

Row | Variant | protein stability index
147 | I5T | 2.4
148 | I5P | 1.78
149 | I5W | 2.75
150 | I5K | 1.69
151 | I5Y | 2.52
152 | I5H | 3.56
153 | I5M | 3.79
154 | I5C | 2.39
155 | I5F | 1.5
156 | I5D | 1.55
157 | A2K | 1.75
158 | A2L | 1.15
159 | A2C | 4.79
160 | A2P | 1.95
161 | A2H | 1.48
162 | A2V | 1.49
163 | A2W | 2.73
164 | A2N | 1.04
165 | A2F | 2.4
166 | A2S | 2.96
167 | A2D | 3.3
